Reference: patent US20200292534A1

Assays:
ATG = target: T1, ATG; test: luminescence complementation; details: chains peptide; modification not given
T1 chain: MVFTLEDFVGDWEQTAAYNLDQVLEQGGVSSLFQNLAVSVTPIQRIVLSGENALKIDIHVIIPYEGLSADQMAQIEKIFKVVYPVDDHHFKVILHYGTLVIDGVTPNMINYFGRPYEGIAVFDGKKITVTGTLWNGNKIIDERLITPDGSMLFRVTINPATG

VTG = target: T2, VTG; test: luminescence complementation; details: chains peptide; modification not given
T2 chain: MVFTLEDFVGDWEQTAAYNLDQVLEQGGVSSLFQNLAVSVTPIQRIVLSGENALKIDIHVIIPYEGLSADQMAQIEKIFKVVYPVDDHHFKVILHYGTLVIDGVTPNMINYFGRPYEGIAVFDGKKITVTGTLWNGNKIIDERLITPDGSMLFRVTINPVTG

GTA = target: T3, GTA; test: luminescence complementation; details: chains peptide; modification not given
T3 chain: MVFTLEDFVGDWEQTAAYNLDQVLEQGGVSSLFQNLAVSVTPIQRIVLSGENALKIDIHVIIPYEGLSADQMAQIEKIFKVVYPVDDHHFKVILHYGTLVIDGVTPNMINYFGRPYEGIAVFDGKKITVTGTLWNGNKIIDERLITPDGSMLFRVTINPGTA

NLpoly 5P [1] = target: T4, NLpoly 5P; test: luminescence complementation; details: chains peptide; modification not given
T4 chain: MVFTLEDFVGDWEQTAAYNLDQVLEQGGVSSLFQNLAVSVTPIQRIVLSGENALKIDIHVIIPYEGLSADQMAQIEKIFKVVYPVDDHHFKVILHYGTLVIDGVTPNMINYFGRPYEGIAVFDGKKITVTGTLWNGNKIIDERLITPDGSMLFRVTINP

NLpoly11S [2] = target: T5, NLpoly11S; test: luminescence complementation titration, one-site specific binding; details: chains peptide; modification not given
T5 chain: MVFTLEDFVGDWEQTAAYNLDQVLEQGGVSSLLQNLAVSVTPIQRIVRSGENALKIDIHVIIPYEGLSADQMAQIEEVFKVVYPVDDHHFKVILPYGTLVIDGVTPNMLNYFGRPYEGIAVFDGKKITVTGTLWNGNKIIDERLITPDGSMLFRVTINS

NLpoly11S [3] = target: T5, NLpoly11S; test: as above; details: chains peptide; modification not given
NLpoly 5P [4] = target: T4, NLpoly 5P; test: luminescence complementation; HeLa lysate; details: chains peptide; modification not given
NLpoly11S [5] = target: T5, NLpoly11S; test: luminescence complementation titration (E. coli lysate NLpoly, synthetic NLpep), one site-specific binding fit
NLpoly11S [6] = target: T5, NLpoly11S; test: luminescence complementation titration, one-site specific binding; details: chains peptide; modification not given
AA = test: luminescence complementation; details: chains peptide; modification not given
VT = test: luminescence complementation; details: chains peptide; modification not given
VA = test: luminescence complementation; details: chains peptide; modification not given
[7] = substrate: CP Nluc; test: cell-based or functional assay
NLpoly11S [8] = target: T5, NLpoly11S; test: luminescence complementation titration, one-site specific binding fit

GWRLFKKISN [NLpep82]
Kd (ATG): 230 nM
Kd (VTG): 276 nM
Kd (GTA): 254 nM
Kd (NLpoly 5P [1]): 215 nM

NVTGYRLFKKISN [NLpep79]
Kd (NLpoly11S [2]): 13.1 nM
Kd (NLpoly11S [3]): 20.3 nM

VSGWRLFKKISN (modifications not checked) [NLpep80]
Kd (NLpoly 5P [4]): 1 nM
Kd (NLpoly11S [5]): < 1 nM
fold improved affinity over NLpolyWT:NLpepWT (NLpoly11S [5]): 10000 fold

VTGYRLFEKES [NLpep101]
Kd (NLpoly11S [3]): 3120 nM

NVSGWRLFKKISN [NLpep78]
Kd (NLpoly11S [6]): 9.56 nM
Kd (NLpoly11S [3]): 2.39 nM

SGWRLFKKISN [NLpep81]
Kd (NLpoly 5P [1]): 110 nM
Kd (AA): 115 nM
Kd (VT): 137 nM
Kd (VA): 132 nM

VTGYRLFEKIL [NLpep128]
Kd (NLpoly11S [3]): 237 nM

VTGYRLFEKIS [NLpep99]
Kd (NLpoly11S [3]): 266 nM

VEGYRLFEKIS [NLpep104]
Kd (NLpoly11S [3]): 1740 nM

VSGWALFKKIS (modifications not checked) [Ala-162]
inhibition of the luminescence generated by CP Nluc [7]: > 2 logs

VSGWQLFKKIS (modifications not checked) [Gln-162]
inhibition of the luminescence generated by CP Nluc [7]: > 1 log

VSGWRLFKKIS (modifications not checked) [NLpep86]
Kd (NLpoly11S [5]): < 1 nM
fold improved affinity over NLpolyWT:NLpepWT (NLpoly11S [5]): 10000 fold

VTGYRLFEEEL (modifications not checked) [array2.54]
Bmax (NLpoly11S [8]): 251000
Kd (NLpoly11S [8]): 68300 nM
